Substitutions are numbered along the chain they refer to.

The target in data set [1] is T1, von Willebrand factor A1 domain (Homo sapiens, UniProt P04275 SEQ:13-246). In words: filter; DPBS, 0.1 mg/mL BSA, RT. As to conditions: label: 5'-32P. As to the method: Based on this initial screen, KD's were determined for 16 of the best vWF dependent binding sequences using the dot blot assay. […] A 6 point protein titration of human vWF A1 domain (SEQ ID NO 5) was used in the dot blot assay (333 nM, 100 nM, 33 nM, 10 nM, 3 nM, 0 nM) in 1× DPBS plus 0.1 mg/mL BSA at room temperature for 30 minutes. KD values were calculated by fitting the equation y=(max/(1+K/protein))+yint using KaleidaGraph (KaleidaGraph v. 3.51, Synergy Software).

The target in data set [2] is T1, von Willebrand factor A1 domain. The data set is described as follows: filter; DPBS, 0.1 mg/mL BSA, 24 C. The settings on record: label: 5'-32P. As to the method: Based on this initial screen, KDs were determined for 12 of the best vWF dependent binding sequences using the dot blot assay and are reported in column 5 of Table 4 below.
For data set [3], the target named is von Willebrand factor full length (Homo sapiens, UniProt P04275 SEQ:764-2813). In words: filter; 20 nM protein. The settings on record: tags: Calbiochem 681300. As to the method: (§1) When a significant positive ratio of binding of DNA in the presence of human or rabbit vWF A1 domain versus in the absence of protein was seen, the pools were cloned using the TOPO TA cloning kit (Invitrogen Cat.# 45-0641, Carlsbad, Calif.) according to the manufacturer's instructions. […] All unique clones were assayed twice in a 3-point dot blot screen (no protein target control, 20 nM full length human vWF (Calbiochem Cat.# 681300, La Jolla, Calif.), or 20 nM rabbit vWF A1 domain. The data is presented in the third and fourth columns of Table 17 below as the ratio of the fraction of the aptamer bound to the nitrocellulose in the presence of the target protein to the fraction of aptamer bound in the absence of the target protein.

The target in data set [4] is T2, von Willebrand factor A1 domain (rabbit) (Oryctolagus cuniculus).
T2 chain: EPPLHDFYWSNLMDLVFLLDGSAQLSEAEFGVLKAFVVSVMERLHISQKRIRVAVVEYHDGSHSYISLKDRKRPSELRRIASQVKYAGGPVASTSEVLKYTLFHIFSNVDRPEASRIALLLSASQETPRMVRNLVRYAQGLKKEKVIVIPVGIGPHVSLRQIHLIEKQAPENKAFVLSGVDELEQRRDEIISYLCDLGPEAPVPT
In words: filter; 20 nM protein. As to conditions: tags: 6xHis. As to the method:
as §1

Data set [5] deals with von Willebrand factor A1 domain (human) (Homo sapiens, UniProt P04275 SEQ:13-246). The data set is described as follows: filter; 100 nM protein. From the text: When a significant positive ratio of binding of RNA in the presence of human or rabbit vWF A1 domain versus in the absence of protein was seen, the pools were cloned using the TOPO TA cloning kit (Invitrogen, Cat.# 45-0641, Carlsbad, Calif.) according to the manufacturer's instructions. Round 9 and 12 pool templates were cloned and sequenced (125 total sequences), producing 48 unique clones. All unique clones were transcribed, desalted, 5-³²P end-labeled, and assayed in a 3-point dot blot screen (no protein target control, 100 nM human vWF A1 domain (SEQ ID NO 5, FIG. 3), or 100 nM rabbit vWF A1 domain (SEQ ID NO 6, FIG. 3). The data is presented in the third and fourth columns of Table 4 below as the ratio of the fraction of the aptamer bound to the nitrocellulose in the presence of the target protein to the fraction of aptamer bound in the absence of the target protein.

B1: AMX205.H10 (mixed)
DNA: GGAGCGCACTCAGCCACTGTTGCCGACGGTGATGTATTAACGCGGGCAACGTTGGTGTTTCGACCTCTCTGCTAGC
modifications: 2'-OH purines, deoxy pyrimidines
Regarding B1, in data set [1], the Kd (in general, the free concentration of one partner at which half of the binding sites on the other are occupied at equilibrium, for simple one-to-one binding) is 397 nM.

B2: AMX201.H3 (ssRNA)
RNA: GGAGCGCACUCAGCCACUAACGGUUGAUCUCAGGACUAAAUAGUCAACAAGGAUGCGUUUCGACCUCUCUGCUAGC
modifications: 2'-F pyrimidines
B2 came in with a Kd in data set [2] of 90 nM.

B3: AMX201.G9 (ssRNA)
RNA: B2 RNA with U24C
modifications: 2'-F pyrimidines
In the case of B3, in data set [2], the Kd is 182 nM.

B4: AMX238.F5 (ssDNA)
DNA: CTACCTACGATCTGACTAGCGGAATGAGAAGCTGGTGGATTGCTCAGGTCTGCTGGCTGCTTACTCTCATGTAGTTCC
B4: the binding signal in data set [3] is 1.05 ratio to no protein; in data set [4], 4.4 ratio to no protein.

B5: AMX201.B1 (ssRNA)
RNA: GGAGCGCACUCAGCCACAGAGCCCUGAGUGUAUGAUCGCCUAGAUCUAUCGAUGCUUUUUCGACCUCUCUGCUAGC
modifications: 2'-F pyrimidines
In data set [2], B5 returned a Kd of 19 nM.

B6: AMX201.B3 (ssRNA)
RNA: B5 RNA with U41G
modifications: 2'-F pyrimidines
B6: the binding signal in data set [5] was 1.69 ratio to no protein.

B7: AMX198.A10 (ssRNA)
RNA: GGAGCGCACUCAGCCACCAGUUAUGCUGGCUUUGGUCUUUGACUGUCUGAGUGUUCGUUUCGACCUCUCUGCUAGC
modifications: 2'-F pyrimidines
The molecule B7 displayed a Kd in data set [2] of 1860 nM.

B8: AMX201.D4 (ssRNA)
RNA: GGAGCGCACUCAGCCACUGGGGCUGAUCUCGCACGAUAGUUCGUGUCAAGGAUGCGUUUUCGACCUCUCUGCUAGC
modifications: 2'-F pyrimidines
Regarding B8, the binding signal in data set [5] is 2.23 ratio to no protein.

B9: AMX201.C8 (ARC840) (ssRNA)
RNA: GGAGCGCACUCAGCCACCCUCGCAAGCAUUUUAAGAAUGACUUGUGCCGCUGGCUGUUUUCGACCUCUCUGCUAGC
modifications: 2'-F pyrimidines
For B9, in data set [2], the affinity, expressed as Kd, was 0.2 nM.

B10: AMX201.B11 (ssRNA)
RNA: GGAGCGCACUCAGCCACACCGAGGCUGGAUAUCUACGAGAGGAAGUGCUGCUUGAAUUUCGACCUCUCUGCUAGC
modifications: 2'-F pyrimidines
As to B10, the binding signal in data set [5] was 1.55 ratio to no protein.

B11: AMX201.D10 (ssRNA)
RNA: B10 RNA with C20U, A55G
modifications: 2'-F pyrimidines
B11: the binding signal in data set [5] is 1.59 ratio to no protein.

B12: AMX205.H9 (mixed)
DNA: GGAGCGCACTCAGCCACGACGGTGATGGATTAGCGCGGTGGAGAAGATGCGCTGTTGTTTCGACCTCTCTGCTAGC
modifications: 2'-OH purines, deoxy pyrimidines
With B12, the Kd in data set [1] is 178 nM.

B13: AMX201.H11 (ssRNA)
RNA: GGAGCGCACUCAGCCACCCUGUCGUCUUUUGGUAGUCAGCCAAAAGCUAGUUGGUUGUUUCGACCUCUCUGCUAGC
modifications: 2'-F pyrimidines
With B13, the binding signal in data set [5] is 1.75 ratio to no protein.

B14: AMX203.G9 (ARC842) (mixed)
DNA: GGAGCGCACTCAGCCACGGGGTGGGTAGACGGCGGGTATGTGGCTGGTGTCGAAGGGTTTCGACCTCTCTGCTAGC
modifications: 2'-OH purines, deoxy pyrimidines
For B14, in data set [1], the dissociation constant Kd came to 1.3 nM.

B15: AMX206.D8 (mixed)
DNA: GGAGCGCACTCAGCCACGACGGTGATGGATTAGCGCGGTGGATCTTAACGTGCGAGTTTCGACCTCTCTGCTAGC
modifications: 2'-OH purines, deoxy pyrimidines
Take B15: in data set [1], the Kd is 370 nM.

B16: AMX198.C6 (ssRNA)
RNA: GGAGCGCACUCAGCCACGGUGGUCAGUCAGUGAUAUGAUUAAGUUCAGCUGUGGCUGUUUCGACCUCUCUGCUAGC
modifications: 2'-F pyrimidines
With B16, the Kd in data set [2] worked out at 249 nM.

B17: AMX198.E11 (ssRNA)
RNA: GGAGCGCACUCAGCCACGGUAACAUUGUUUCCGGCGAUUCUUUGAACGCCGUCGUGGUUUCGACCUCUCUGCUAGC
modifications: 2'-F pyrimidines
With B17, in data set [2], the Kd is 1060 nM.

B18: AMX236.C1 (ssDNA)
DNA: CTACCTACGATCTGACTAGCGGAATGAGAATGTTGGTGGATTGCTCAGGTCTGCTGGCTGCTTACTCTCATGTAGTTCC
With B18, the figures for the binding signal in data set [3] and in data set [4] were 1.03 ratio to no protein and 3.28 ratio to no protein, respectively.

B19: AMX237.C1 (ssDNA)
DNA: B18 DNA with A29G, T33C
B19: the results for the binding signal in data set [3] and in data set [4] were 0.76 ratio to no protein and 3.47 ratio to no protein, respectively.

B20: AMX237.E10 (ssDNA)
DNA: B18 DNA with T33C
In the case of B20, in data set [4], the binding signal is 6.04 ratio to no protein.

B21: AMX236.C6 (ssDNA)
DNA: B18 DNA with A30G, T33C
For B21, the binding signal in data set [3] is 1.06 ratio to no protein; in data set [4], 5.77 ratio to no protein.

B22: AMX238.A6 (ssDNA)
DNA: B18 DNA with T33C, T34A, G36A
Turning to B22, the binding signal in data set [3] is 0.92 ratio to no protein; in data set [4], 3.47 ratio to no protein.

B23: AMX236.E2 (ssDNA)
DNA: B18 DNA with A29T, T33C, G36A
As to B23, the binding signal in data set [3] is 0.93 ratio to no protein; in data set [4], 3.59 ratio to no protein.

B24: AMX237.B12 (ssDNA)
DNA: B18 DNA with T33C, T34A
On to B24, for which the binding signal in data set [4] was 4.67 ratio to no protein.

B25: AMX238.A11 (ssDNA)
DNA: B18 DNA with A30G
As to B25, the binding signal in data set [3] was 0.85 ratio to no protein; in data set [4] it was 4.54 ratio to no protein.

B26: AMX238.F6 (ssDNA)
DNA: B18 DNA with A29T, T33C
B26: in data set [4], the binding signal was 5.36 ratio to no protein.

B27: AMX198.E5 (ssRNA)
RNA: GGAGCGCACUCAGCCACUUCGACUUUCAUGUCUGAAGUCCCUGCAGUGCGAGAGACGUUUCGACCUCUCUGCUAGC
modifications: 2'-F pyrimidines
In data set [2], B27 came in with a Kd of 172 nM.

B28: AMX205.F7 (ARC841) (mixed)
DNA: GGAGCGCACTCAGCCACACGACATTGGCGGGTTGTAATTACCACGCATGGCTGTTTGTTTCGACCTCTCTGCTAGC
modifications: 2'-OH purines, deoxy pyrimidines
Take B28: in data set [1], the Kd is 1.5 nM.

B29: AMX201.H4 (ssRNA)
RNA: GGAGCGCACUCAGCCACUAACGGUUGAUCUCAGGACUAAUAGUCAACAAGGAUGCGUUUCGACCUCUCUGCUAGC
modifications: 2'-F pyrimidines
B29: in data set [5], the binding signal was 1.79 ratio to no protein.

B30: AMX198.G1 (ssRNA)
RNA: GGAGCGCACUCAGCCACAACACUAAUGGGGAAAGUUCAAGGAUUCUUGACCGGUGCGUUUCGACCUCUCUGCUAGC
modifications: 2'-F pyrimidines
B30 returned a Kd in data set [2] of 45 nM.

B31: AMX201.G1 (ssRNA)
RNA: GGAGCGCACUCAGCCACGCUCGGUGGGGAAAUUUUAGCCUAAUUGGCUACUUGUGCGUUUCGACCUCUCUGCUAGC
modifications: 2'-F pyrimidines
Regarding B31, the equilibrium dissociation constant (Kd) in data set [2] was 190 nM.

B32: AMX198.C10 (ssRNA)
RNA: GGAGCGCACUCAGCCACUGGUCCUUAGCUAGUUGUACUAGCGACGCGUUCAGGUGGUUUCGACCUCUCUGCUAGC
modifications: 2'-F pyrimidines
As to B32, the affinity in data set [2], expressed as Kd, was 555 nM.

B33: AMX201.H1 (ssRNA)
RNA: GGAGCGCACUCAGCCACUUUACGGUGAAAGUCUCUCGGGGUUCCGAGUUACGGUGCGUUUCGACCUCUCUGCUAGC
modifications: 2'-F pyrimidines
Take B33: binding in data set [2] was put at a Kd of 189 nM.

Source of the values: patent US20060264369, “Aptamers to von Willebrand Factor and their use as thrombotic disease therapeutics” (published 2006).
